Source: the nanobody polyreactivity screen of Harvey et al. (2022)

Experiment: yeast display, Sf9 membrane polyspecificity reagent, FACS + sequencing; frameworks hold sequencing errors
Method in brief: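 In a synthetic yeast display library (Saccharomyces cerevisiae BJ5465), nanobody expression was induced with galactose for 36–48 hours. FACS gates were set low and high (top ~1%) using anti-HA fluorescence for expression and streptavidin fluorescence for binding of the Sf9 membrane reagent. Each polyreactivity label is drawn from the gate of origin.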

Row | Sequence | polyreactivity (PSR sort gate)
1 | QVQLVESWGGLVQAGGSLRLSCAASGSTFRRNAMGCYRQAPGKERELVAAITRSGDSTYYADSVKGRFTISRDYAKNTVYLQMNSLKPEDTAVYYCAADSSRYRYRNQGYYWGQGTQVTVSS | high polyreactivity
2 | QVQLVESWGGLVQAGGSLRLSCAASGSTFSLYTMGWYRQAPGKERELVATIDSGGSTNYADSVKGRFTISRDNAKNTVYLQMNSLKPEDTAVYYCVDYYNGYTHNYNYWGQGTQVTVSS | low polyreactivity
3 | QVQLVESWGGLVQAGGSLRLSCAASGSTIAYYVLGWYRQAPRKERELVAAINFSGDSTYYADSVKGRFTNSRDNAKNTVNLQMNSLKPEDTAVYYCAVDWGEYIDTSVKRDISYYWGQGTQVTVSS | low polyreactivity
4 | QVQLVESWGGLVQAGGSLRLSCAASGYISNAMGWYRQAPGKERELVAVITRGGSTNYADSVKGRFTISRDNAKNTVYLQMNSLKPEDTAVYYCAKDVPYRRVRSEYWGQGTQVTVSS | low polyreactivity
5 | QVQLVESWGGLVQAGGTLRLSCAASGSTFTLNCMGWYRQAPGKERELVASITWSGGSTYYADSVKGRFTISRDNAKNTVYLQMNSLKPEDTAVYYCADDEKLYITGYDYWGQGTQVTVSS | low polyreactivity
6 | QVQLVESWGGLVQEGGSLRLSCAASGSTFGPYAMGWYRQAPGKERELVAAITESGDSTYYADSVKGRFTISRDNAKNSVYLQMNSLKPEDTAVYYCAATRGSSEYYYWGQGTQVTVSS | low polyreactivity
7 | QVQLVESWGGLVQSGGSLRLSCAASGFTFGHNAMGWYIQAPGKERELVAAIDTSGGSTYYADSVKGRFTISRDNEKNTVYLKMNSLKPEDTAVYYCAAFSASYGGYDYWGQGTQVTVSS | high polyreactivity
8 | QVQLVESWGGLVQSGGSLRLSCAASGSIFSFYPMGWYRQAPGKERELVAAISSGGSTYYADSVKGRFTISRDNAKNTVYLQMNSLKPEDTAVYYCAADQHIRVSWYLQMYYWGQGTQVTVSS | low polyreactivity
9 | QVQLVESWGGVVQAGGSLRLSCAASGRIFQHYAMGWYRQAPGKERELVAAISWRGGSTYYADSVKGRFTISRDNAKNTVFLQMNSLKPEDTAVYYCAAGYRGRIPGFDYWGQGTQVTVSS | high polyreactivity
10 | QVQLVESWGRLVQAGGSLRLSCAASGSTFTGNAMGWYRQAPGKERELVAVISSGASTNYADSVKGRFTISRDNAKNSVSLQMNSLKAEDSAVYYCAADSWDYDSRMDYWGQGTHVTVSS | low polyreactivity
11 | QVQLVESWGVLVQAGGSLRLSCAASGSIFYYYVMGWYRQAPWKERELVAAISYGGGTNYADSVKERFTISRDNAKNTVYLQMISLKPEDTAVYYCNVVTYRRFDYWGQGTQVTVSS | low polyreactivity
12 | QVQLVETCGGLDQAGVSLRLSCAASGIIFKTYAMGWYRQAPGKETEYVAPISVSGGGTYYADSVKGRFTISRDNAKNTVYLQMNSPKPEDTAVYYCAARSWYWRYYTLNPYDYWVQGTQVTVSS | high polyreactivity
13 | QVQLVETGGGLFQAGGSLRISCAASGSTFYTYAMGWYRQSPGKERELVAAITRRGGRTYYADSVKGRFTISRDNAKNTVYLQMNSLKPEDTAVYYCAADSRTNGYDYWGQGTQVTVSS | high polyreactivity
14 | QVQLVETGGGLVHAGGSLRLSCAASGFIFVVNAMGWYRQAPGKERELVAAITRNGGSTYYADSVKGRFSISRDNEKNTVYLQMNSLKPEDTAVYYCATYVRRAPSTFDVDYWGLGTQVTVSS | high polyreactivity
15 | QVQLVETGGGLVHAGGSLRLSCAASGITFTTNTMGWYRQAPGKERELVAAISSTGGNTFYADSVKGRFTISRDNAKNTVYLQMNSLKPEDTAVYYCSYVPSNARGEYDSWGQGTQVTVSS | low polyreactivity
16 | QVQLVETGGGLVKAGGSLRLSCGASGFIFTYNAMGWYRQAPGKERELVAAISGSGGRTYYADSVKGRFTISRDNAKNTVYLQMNSLKPEDTAVYYWNRDPKSLSYGSRGFGYWGLGTQVTVSS | high polyreactivity
17 | QVQLVETGGGLVQAGASLRLSCAASGRTFVYNAMGWYRQAPGKEREFVAAIDGGGDRTFYADSVKGRFTISRDYAKNTVYLQMNSLKPEDTAVYYCARDPGDTYYYSYPEGDYWGQGTQVTVSS | low polyreactivity
18 | QVQLVETGGGLVQAGGRLRLSCAASGSTFGSYAMGWYRQAPGKERELVATITESDGTTYYADSVKGSFTISRDNAKNTVYLQMNSLKREDTAVYYCAANYSGDRKRYWPGDTDDYWGQGTQVTVSS | high polyreactivity
19 | QVQLVETGGGLVQAGGSLGLSCDASGSTFLYVRGWYRQAPGKERELVAAISESGGSPYYADSVKGRFTISRDNAKNTVYLQMNSLKPEDTAVYYCAADLPSGLQYRYYRVDYWGQGTQVTVSS | low polyreactivity
20 | QVQLVETGGGLVQAGGSLLLSSAASGIIIRYYGMGCYGQAPGTERELVARIRWTGGSTYSADSVKGRFTISRDNAKNTVYLQMNSLKPEDTAVYYCAADIWQYSRIANYHPFDYWGQGTQVTVSS | low polyreactivity
21 | QVQLVETGGGLVQAGGSLRLSCAASARTFVNYAMGWYRQAPGKEREFVAAITNGGRTNYADSVKGRFTISRDNAKNTVYLQMNSLKQEDTAVYYCAARYRFGGIRRFNYWGQGTQVTVSS | high polyreactivity
22 | QVQLVETGGGLVQAGGSLRLSCAASGCIITYYAMGWYRPAPGKERELVAAITASGSRTYYADSVKGRFTISRDNAKNTVYLQMNSLKPEDTAVYDCASDNWQWYPSTWYDYWGQGTQVTVSS | high polyreactivity

Row | Sequence | polyreactivity (PSR sort gate)
23 | QVQLVETGGGLVQAGGSLRLSCAASGFIFEFYAMGWYRQAPGKERELVAAITGRGGSTYYADSVKGRFTISRDNAKNTVYLQMNSLKPEDTAVYYCAASIGGQVPGFGWYDYWGQGTQVTVSS | low polyreactivity
24 | QVQLVETGGGLVQAGGSLRLSCAASGFIFGYNAMGWYRQAPGKERELVATISWSGGSTYYADSVKGRFTISRDNAKNTVYLQMNSLKPEDSAVYYCAAEGWERLGWVSWVTVDYWGQGTQVTVSS | low polyreactivity
25 | QVQLVETGGGLVQAGGSLRLSCAASGFTIWKYAMGWYRQAPGKERELVAAISLGGGRTYYADSVKGRFTISRDNANNTVYLQMNSLKPEDTAVYYCNAKIVSSVLYDYWGQGNQVTVSS | low polyreactivity
26 | QVQLVETGGGLVQAGGSLRLSCAASGIIFSRYAMGWYRQAPGIERELVASITGRVGSTYYADSVKGRFTISRDNAKNTVYLQMNRLKPEDTAVYYCAADYGYKFDYWGQGTQVTVSA | low polyreactivity
27 | QVQLVETGGGLVQAGGSLRLSCAASGITFFGYDIGWYRQAPGKERELVAAINSRGGNTYYADSVKGRFTISRDNAKYTVYLQMNSLKPEDTAVYYCAARRYYNRAYGYWGQGTQVTVSS | high polyreactivity
28 | QVQLVETGGGLVQAGGSLRLSCAASGITFVYYAMGWYRQAPGKERELVPSISSADNTNYADSVKGRFTISRDNAKNTVYLQMNSLKPEDTAVYYCAADFCWHLRHDSTGGYWGQGTQVTVSS | low polyreactivity
29 | QVQLVETGGGLVQAGGSLRLSCAASGITSRPYVMGWYRQAPGKERELVAAISLTGGRTYYADSVKGRFTISRDNAKNTVYLQMNSPKPEDTAVYYCAAARSPYKYSYWGQGTQVTVSS | high polyreactivity
30 | QVQLVETGGGLVQAGGSLRLSCAASGLIFVSNAMGWYIQAPGKVRELVAAISKSVGRTYYADSVKGRFTISRDNEKNTVYLQMNSLQPEDTAVYYCAARSRVSPRYDYWGQGTQVTVSS | high polyreactivity
31 | QVQLVETGGGLVQAGGSLRLSCAASGLIFYRYAMGWYRQAPGKERELVAVITRSGGNTNYADSVKGRFTISRDNAKNTVYLQMNSLKPEDTAVYYCATRGIWKKVPYYYWGQGTQVTVSS | high polyreactivity
32 | QVQLVETGGGLVQAGGSLRLSCAASGLTFKYYTKGWYRQAPGKERELVASISWSGGSTYYADSVKGRFTISRDNAKNTVYLQMNSLKPEDTAVYYCARRGYWGPGALGGGGYYWGQGTQVTVSS | high polyreactivity
33 | QVQLVETGGGLVQAGGSLRLSCAASGRIFGPYAMGWYRQAPGKERELVAAITWSGVSTYYADSVKGRFTISRDNAKNSVYLQMNSLKQEDTAVYYCAVDPRGHEGVRYNYWGQGTKVTVSS | low polyreactivity
34 | QVQLVETGGGLVQAGGSLRLSCAASGRIFYLYAMGWYRQAPGKEWELVAAISSSGGSTYYADSVKGRFTISRDNAKTTVYLQMNSLKPEDTAVYYCNARRRTVPYRYDYWGQGTQVTVSS | high polyreactivity
35 | QVQLVETGGGLVQAGGSLRLSCAASGRIFYYYAMGWYRQAPGKERELVAGIDSGDSTNYADSVKGRFTISRDNAKNTVYLQMNSLKPEDTAVYYCAALHYGVYFSYYPYYYWGQGTQVTVSS | low polyreactivity
36 | QVQLVETGGGLVQAGGSLRLSCAASGRTFGHNDMGWSRQAPGKERELVATISSDGSTNYADSVKGRFTISRDNAKNTVYLQMNSLKPEDTAVYYCAKVYQYVEYDYWGQGTQVTVSS | low polyreactivity
37 | QVQLVETGGGLVQAGGSLRLSCAASGRTFKGYAMGWYRQSPGKERELVAGISRGAGRTYYADSVKGRFTISRDNAKNTVYLQMNSLKPEDTEVYYCAAVPSYHSTSPFYYWGQGTQVTVSS | high polyreactivity
38 | QVQLVETGGGLVQAGGSLRLSCAASGRTFLDYTMGWYRQAPGKERELVAAIRTSAGSTYYADSVKGRFTISRDNAKNTVYLQMNSLKPEDTAVYYCAKRQRGYFYEYYLYYSWGQGTQVTVSS | low polyreactivity
39 | QVQLVETGGGLVQAGGSLRLSCAASGRTFYQYAMGWYRQAPGKERELVAGITFRGGSTNYADSVKGRFTISRDNAKNTVYLQMNSLKPEDTAVYYCAATVYGTVYKGRSQYEYGYWGQGTQVTVSS | high polyreactivity
40 | QVQLVETGGGLVQAGGSLRLSCAASGSIFHPYGIGSYRQGPGKERELVAAITSSGGDTYYADSVKGRFTISRDNSKNTVYLQINSLKPEDTAVYYCAATGLPGYYAYDYWGQGTQVTVSS | low polyreactivity
41 | QVQLVETGGGLVQAGGSLRLSCAASGSIFRYNAKGWYRQAPGKEREFVAAITRSGGSTYADSVKGRFTISRDNAKNTVSLQLNSLKPEDTAVYYCAATRLSRYEYWGQGTQVTVSS | low polyreactivity
42 | QVQLVETGGGLVQAGGSLRLSCAASGSIFTNYVMGWYRQAPGKERELVAAINWSGGSTYYADSVKGRFTISRDNAKNTVYLQMNSLKQEDTAVYFCASESFSDGSPYNYWGQGPQVTVSS | low polyreactivity
43 | QVQLVETGGGLVQAGGSLRLSCAASGSIFVYNAMGWYRQAPGKERELVAGITFIGGSTYYADSVKGRFTISRDNAKNTVFLQMNSLKPEDTAVYYCNADVAPGIFYGYDSWGQGTQVTVSS | low polyreactivity
